Measured values published in patent US20110201130A1.

Key:
[1] = target: human B-type natriuretic peptide (human); test: sandwich CMIA, capture 106.3 AM1, hBNP 0 pg/mL (blank)
[2] = target: human B-type natriuretic peptide (human); test: sandwich CMIA, capture 106.3 AM1, hBNP 30 pg/mL (8.67 pM)
[3] = target: human B-type natriuretic peptide (human); test: sandwich CMIA, capture 106.3 AM1, hBNP 150 pg/mL (43.3 pM)
[4] = target: human B-type natriuretic peptide (human); test: sandwich CMIA, capture 106.3 AM1, hBNP 300 pg/mL (86.6 pM)
[5] = target: human B-type natriuretic peptide (human); test: sandwich CMIA, capture 106.3 AM1, hBNP 1000 pg/mL (288.7 pM)
[6] = target: human B-type natriuretic peptide (human); test: sandwich CMIA, capture 106.3 AM1, hBNP 2000 pg/mL (577.4 pM)
[7] = target: human B-type natriuretic peptide (human); test: sandwich CMIA, capture BNP 3-631-436 ms, hBNP 0 pg/mL (blank)
[8] = target: human B-type natriuretic peptide (human); test: sandwich CMIA, capture BNP 3-631-436 ms, hBNP 30 pg/mL (8.67 pM)
[9] = target: human B-type natriuretic peptide (human); test: sandwich CMIA, capture BNP 3-631-436 ms, hBNP 150 pg/mL (43.3 pM)
[10] = target: human B-type natriuretic peptide (human); test: sandwich CMIA, capture BNP 3-631-436 ms, hBNP 300 pg/mL (86.6 pM)
[11] = target: human B-type natriuretic peptide (human); test: sandwich CMIA, capture BNP 3-631-436 ms, hBNP 1000 pg/mL (288.7 pM)
[12] = target: human B-type natriuretic peptide (human); test: sandwich CMIA, capture BNP 3-631-436 ms, hBNP 2000 pg/mL (577.4 pM)
[13] = target: human pro B-type natriuretic peptide (human); test: sandwich CMIA, capture 106.3AM1, proBNP spike 103 pg/mL, read off hBNP curve
[14] = target: human pro B-type natriuretic peptide (human); test: sandwich CMIA, capture 106.3AM1, proBNP spike 515 pg/mL, read off hBNP curve
[15] = target: human pro B-type natriuretic peptide (human); test: sandwich CMIA, capture 106.3AM1, proBNP spike 1031 pg/mL, read off hBNP curve
[16] = target: human pro B-type natriuretic peptide (human); test: sandwich CMIA, capture 106.3AM1, proBNP spike 3436 pg/mL, read off hBNP curve
[17] = target: human pro B-type natriuretic peptide (human); test: sandwich CMIA, capture 106.3AM1, proBNP spike 6872 pg/mL, read off hBNP curve
[18] = target: human pro B-type natriuretic peptide (human); test: sandwich CMIA, capture BNP 3-631-436 ms, proBNP spike 103 pg/mL, read off hBNP curve
[19] = target: human pro B-type natriuretic peptide (human); test: sandwich CMIA, capture BNP 3-631-436 ms, proBNP spike 515 pg/mL, read off hBNP curve
[20] = target: human pro B-type natriuretic peptide (human); test: sandwich CMIA, capture BNP 3-631-436 ms, proBNP spike 1031 pg/mL, read off hBNP curve
[21] = target: human pro B-type natriuretic peptide (human); test: sandwich CMIA, capture BNP 3-631-436 ms, proBNP spike 3436 pg/mL, read off hBNP curve
[22] = target: human pro B-type natriuretic peptide (human); test: sandwich CMIA, capture BNP 3-631-436 ms, proBNP spike 6872 pg/mL, read off hBNP curve

Sequence of human B-type natriuretic peptide (human) (peptide, as listed by the source): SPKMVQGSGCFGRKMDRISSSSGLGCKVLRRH
Sequence of human pro B-type natriuretic peptide (human) (chain, as listed by the source): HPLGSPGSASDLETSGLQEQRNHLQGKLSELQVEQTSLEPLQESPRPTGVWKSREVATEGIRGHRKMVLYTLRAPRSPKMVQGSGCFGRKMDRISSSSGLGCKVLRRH

## monoclonal antibody BC203
[1]
  RLU: 768 RLU
[2]
  RLU: 1030 RLU
[3]
  RLU: 3850 RLU
[4]
  RLU: 8760 RLU
[5]
  RLU: 65500 RLU
[6]
  RLU: 223000 RLU
[7]
  RLU: 803 RLU
[8]
  RLU: 1340 RLU
[9]
  RLU: 4690 RLU
[10]
  RLU: 11900 RLU
[11]
  RLU: 83500 RLU
[12]
  RLU: 270000 RLU
[13]
  Readback: 117 pg/mL
  Recovery: 114%
[14]
  Readback: 190 pg/mL
  Recovery: 36.8%
[15]
  Readback: 456 pg/mL
  Recovery: 44.2%
[16]
  Readback: 1370 pg/mL
  Recovery: 39.7%
[17]
  Readback: 2830 pg/mL
  Recovery: 41.2%
[18]
  Readback: -5.3 pg/mL
  Recovery: -7%
[19]
  Readback: 40.8 pg/mL
  Recovery: 10.9%
[20]
  Readback: 111 pg/mL
  Recovery: 14.8%
[21]
  Readback: 482 pg/mL
  Recovery: 19.3%
[22]
  Readback: 895 pg/mL
  Recovery: 17.9%
